Source: patent publication US20260224727A1, “COMPOUNDS AND METHODS FOR TREATING, AMELIORATING, OR […]” (Yale University, priority 2023, published 2026)
Blank lines part the entries; values can stand above or below the molecule they belong to. Bridge positions count the residues as written; N and C are the ends. Square brackets hold non-standard residues; d marks the D form. Ends that are not written are not given here. Cit = NC(=O)NCCC[C@H](N)C(=O)O

Key:
[1] = Plasma stability in rat plasma (LCMS, percent remaining); format: in vitro ADME; settings: 37° C., 2 hours incubation, read-out: T1/2 plasma stability
Protocol: (§1) With reference to FIGS. 6A and 6B, plasma stability […] of CCP1-GN4 was measured at WuXi Biologics. The compound was incubated in human, rat, or mouse plasma at 37° C. for 2 hours. Aliquots were taken at various time points and the percent remaining of CCP1-GN4 was quantified by LCMS. For plasma protein binding (PPB), the compound (CCP1-GN4) was incubated with human, rat, or mouse plasma protein and the degree of plasma protein binding was determined by ultracentrifugation and LCMS.

[2] = Plasma stability in mouse plasma (LCMS, percent remaining); format: in vitro ADME; settings: 37° C., 2 hours incubation, read-out: T1/2 plasma stability
Protocol: as §1

[3] = molecular target: T1, recombinant biotin-ASGPR1 (Homo sapiens, UniProt P07306); assay: SPR binding to ASGPR1 (Biacore 8K)
T1 construct: purchased Viva Biotech
T1 sequence (P07306 1-291): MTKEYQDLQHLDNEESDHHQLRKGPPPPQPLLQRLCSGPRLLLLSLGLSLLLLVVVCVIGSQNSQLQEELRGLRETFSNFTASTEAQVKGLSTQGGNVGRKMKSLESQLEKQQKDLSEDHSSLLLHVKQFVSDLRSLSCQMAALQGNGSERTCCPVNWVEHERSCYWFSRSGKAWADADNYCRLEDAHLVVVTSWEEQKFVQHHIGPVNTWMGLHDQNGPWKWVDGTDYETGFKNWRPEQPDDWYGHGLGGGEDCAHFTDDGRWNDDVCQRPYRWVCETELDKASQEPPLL
Protocol: With reference to FIG. 5B, binding to ASGPR1 was characterized by surface plasmon resonance (SPR) on a Biacore 8K instrument. Preceding binding measurement, recombinant biotin-ASGPR1 (Viva Biotech) was diluted to a concentration of 2 μg/mL in a buffer containing 20 mM Tris pH 8.0, 200 mM NaCl, 1 mM TCEP, 2 mM CaCl2), and 0.01% Tween-20. A Sensor Chip SA (Cytiva) was conditioned with three injections of 1 M NaCl in 50 mM NaOH prior to capturing […] ASGPR on the sensor chip surface. Capture was performed at a flow rate of 5 μL/min with a target level of 1000 RU. CCP1-GN4 was serially diluted across 10 points to final test concentrations (25 nM, 8.3 nM, 2.8 nM, 0.93 nM, 0.3 nM, 0.1 nM, 0.03 nM, 0.01 nM, 0.004 nM, 0.0013 nM) in buffer composed of 20 mM Tris pH 8.0, 200 mM NaCl, 1 mM TCEP, 2 mM CaCl2), 0.01% Tween-20, and a final solvent composition of 3% DMSO.
Samples were injected over the sensor chip surface with a contact time of 180 seconds, dissociation time of 600 seconds, flow rate of 40 μL/min and temperature of 25° C. Data files were fit to multi-cycle kinetics and steady state models using Biacore Insight Evaluation software to determine kinetic and affinity binding parameters.

[4] = Plasma stability in human plasma (LCMS, percent remaining); format: in vitro ADME; settings: 37° C., 2 hours incubation, read-out: T1/2 plasma stability
Protocol: as §1

[5] = molecular target: mouse anti-citrullinated epitope recombinant antibody clone 12G1 (anti-CCP1); assay: SPR binding of CCP1-GN4 to immobilized anti-CCP1 antibody (Biacore S200, steady state affinity); settings: antibody clone 12G1 immobilized on CM5 chip, 25° C., steady state affinity model, read-out: KD (anti-CCP)
Protocol: With reference to FIG. 5A, binding of CCP1-GN4 was assessed using a surface plasmon resonance (SPR) on a Biacore S200 instrument. Prior to binding studies, 20 μg/mL mouse anti-citrullinated epitope recombinant antibody clone 12G1 (anti-CCP1) (Creative BioLabs) was immobilized to a Series S Sensor Chip CM5 using amine coupling to a target of 1.000 response units (RU) in 10 mM sodium acetate buffer pH 5.5. In parallel, normal human IgG isotype control (R&D Systems) was immobilized as a reference subtraction control using identical conditions. Sensor chips and reagents necessary for amine coupling were purchased from Cytiva.
CCP1-GN4 was serially diluted in 100% DMSO and transferred to a 96-well microplate. 1×HBS-P buffer (Cytiva) was added to dilute sample to final test concentrations (1000 nM, 250 nM, 62.5 nM, 15.6 nM, 3.9 nM, 1 nM) in 1% DMSO. A solution of 1×HBS-P (Cytiva) containing 1% DMSO was prepared as running buffer immediately prior to binding experiments.
Samples were injected over the sensor chip with a contact time of 300 seconds, dissociation time of 600 seconds, and a flow rate of 30 μL/minute at 25° C. Between injections, a solution containing 50% DMSO in 1×HBS-P buffer was used to wash any remaining bound analyte from the sensor chip surface. […]

[6] = molecular target: recombinant biotin-ASGPR1 (Viva Biotech); assay: SPR (Biacore 8K), biotin-ASGPR1 captured on SA chip, CCP1-GN4 as analyte, multi-cycle kinetics and steady state models
[7] = molecular target: recombinant biotin-ASGPR1 (Viva Biotech); assay: SPR (Biacore 8K), biotin-ASGPR1 captured on Sensor Chip SA, CCP1-GN4 as analyte, multi-cycle kinetics, 1:1 binding model, 25 C
[8] = molecular target: mouse anti-citrullinated epitope recombinant antibody clone 12G1 (anti-CCP1) (Creative BioLabs); assay: SPR (Biacore S200), antibody 12G1 amine-coupled on CM5, CCP1-GN4 as analyte, steady state affinity model
[9] = molecular target: mouse anti-citrullinated epitope recombinant antibody clone 12G1 (anti-CCP1) (Creative BioLabs)

Molecule: CC(=O)N[C@H]1[C@H](OCCOCCOCCNC(=O)CCOCC(COCCC(=O)NCCOCCOCCO[C@@H]2O[C@H](CO)[C@H](O)[C@H](O)[C@H]2NC(C)=O)(COCCC(=O)NCCOCCOCCO[C@@H]2O[C@H](CO)[C@H](O)[C@H](O)[C@H]2NC(C)=O)NC(=O)CNC(=O)CCOCCOCCOCCOCc2cn(CC[C@H](N)C(=O)N[C@@H](Cc3c[nH]cn3)C(=O)N[C@@H](CCC(N)=O)C(=O)N[C@H]3CSSC[C@@H](C(=O)NCC(=O)N[C@@H](CCCNC(=N)N)C(=O)N[C@@H](CO)C(=O)NCC(=O)N[C@@H](CO)C(=O)O)NC(=O)[C@H](CCCNC(=N)N)NC(=O)CNC(=O)[C@H](CCCNC(=N)N)NC(=O)[C@H](CO)NC(=O)[C@H](CCCNC(=N)N)NC(=O)CNC(=O)[C@H](CCCNC(N)=O)NC(=O)[C@H]([C@@H](C)O)NC(=O)[C@H](CO)NC(=O)[C@H](CCC(=O)O)NC(=O)[C@H](CCC(N)=O)NC(=O)[C@H](Cc4c[nH]cn4)NC3=O)nn2)O[C@H](CO)[C@H](O)[C@@H]1O [CCP1-GN4]
half-life [1]: > 4.83 h | half-life [2]: > 4.83 h | Kd [3]: 1.92 nM | half-life [4]: > 4.83 h | Kd [5]: 75 nM

Kd [6]: 1.92 nM | koff [7]: 0.029 s⁻¹ | kon [7]: 1.51e+07 M⁻¹ s⁻¹ | Kd [8]: 75 nM | EC50 (read off the curve); Anti-CCP1 MFI of 12G1 with goat anti-mouse AF488 in HEK-293-ASGPR cells [9]: 50 nM
B1: CCP1-GN4 (peptide)
peptide: HQCHQEST[Cit]GRSRGRCGRSGS-OH
modifications: disulfide 3-16; not fully specified (N-terminus); also: Dab(N3) side-chain azide joined by CuAAC triazole to Target A001A-PEG4-Alkyne (tri-GalNAc)
